Paper PMC7134557

Substrate: Nc1ncnc2c1ncn2[C@@H]1O[C@H](COP(=O)(O)OP(=O)(O)OP(=O)(O)O)[C@@H](O)[C@H]1O
Assay: purified protein

B1: BaMV helicase-like domain (of BaMV replicase) (Bamboo mosaic virus) (protein)
chain: YSPDIERAAAFARDVMSNKTGAILPKQSHEWKTTLKRKCKLAPRQTLISVIHGAGGSGKSRALQEYMRNNKEDPIVTILPTNELRADWKAKLPAHDPDMFMTFENALLIPKGNVVIMDDYTKLPRGYIEAYVQNSPMLDLLILTGDPRQSEHFESAEGNTINDLSPSPVVFSAYARYYINATHRNNQDLANALGVYSEKQGKTRISVSNHIEDGRHTLVPSQIKQRNYVSMGRKTSTYAGCQGITASRVQVIIDNDTAKCSHQVLYTAFSRAADEIHFCNTMTDEKQFWAKVKCTPYLQAILNLTKEHSLPDP
Q: What does the source list for B1?
A: Km: 148 ± 5 µM; kcat: 82 s⁻¹
